Data published in patent publication EP4814019A1 (Zhejiang University, dated 2026).
Each block holds one binder with its values, some of them ahead of it.

Target: T1, …-HLA A0201 complex (human, biotinylated with BirA (site not stated))
T1 construct: Held on streptavidin in the ELISA and in SPR; also called NY-ESO-1 antigen; positive antigen NY-ESO-1
Test: SPR (BIAcore), biotinylated pMHC on streptavidin-coupled CM5 chip, nanobody as analyte

Kd: 96.6 nM
B1: NY-ESO-1-VHH-1 (VHH)
VHH: QVQLQESGGGLVQAGGSLRLSCAASGTIFHQIDMGWYRQAPGKERELVAAIGTGSSTYYADSVKGRFTISRDNAKNTVYLQMNSLKPEDTAVYYCAAWHYYWGQGTQVTVSS
notes: Synthetic nanobody from a yeast display library

Kd: 1170 nM
B2: NY-ESO-1-VHH-9 (VHH)
VHH: QVQLQESGGGLVQAGGSLRLSCAASGYISYLNTMGWYRQAPGKEREFVATIGQGSSTYYADSVKGRFTISRDNAKNTVYLQMNSLKPEDTAVYYCADQLGYWGQGTQVTVSS
notes: as for B1

Kd: 68.1 nM
B3: NY-ESO-1-VHH-5 (VHH)
VHH: QVQLQESGGGLVQAGGSLRLSCAASGNISAVYTMGWYRQAPGKEREFVAAIDYGGSTYYADSVKGRFTISRDNAKNTVYLQMNSLKPEDTAVYYCASYYHGYWGQGTQVTVSS
notes: as for B1

Kd: 102 nM
B4: NY-ESO-1-VHH-4 (VHH)
VHH: QVQLQESGGGLVQAGGSLRLSCAASGNIFYPQYMGWYRQAPGKEREFVAAISDGASTYYADSVKGRFTISRDNAKNTVYLQMNSLKPEDTAVYYCADLWYWGQGTQVTVSS
notes: as for B1
